One test deals with centromere B (UniProt P07199). The test is described as follows: Luminex AtheNA Multi-Lyte ANA Test, 0.15 µg mab per test.
A further test deals with SS-A/Ro. The description is as above.
Another test concerns the target histones. The description is as above.
Another test addresses Mab 4E10. The test is described as follows: competition ELISA: gp140 (19.25-1230 nM) mixed with 10 µg/ml 4E10 MAb, added to wells with 1.35 µg cardiolipin. On the technique in general: In an ELISA, binding on a coated surface is turned into a signal by an enzyme label.

Results on 5 substances are retold here after patent US20100028415A1.

In general, IC50 refers to the concentration needed to halve the response being measured. Low readings indicate inhibition by little substance, high ones a need for much substance.

UniProt P07199, sequence (P07199 2-599 limits assumed): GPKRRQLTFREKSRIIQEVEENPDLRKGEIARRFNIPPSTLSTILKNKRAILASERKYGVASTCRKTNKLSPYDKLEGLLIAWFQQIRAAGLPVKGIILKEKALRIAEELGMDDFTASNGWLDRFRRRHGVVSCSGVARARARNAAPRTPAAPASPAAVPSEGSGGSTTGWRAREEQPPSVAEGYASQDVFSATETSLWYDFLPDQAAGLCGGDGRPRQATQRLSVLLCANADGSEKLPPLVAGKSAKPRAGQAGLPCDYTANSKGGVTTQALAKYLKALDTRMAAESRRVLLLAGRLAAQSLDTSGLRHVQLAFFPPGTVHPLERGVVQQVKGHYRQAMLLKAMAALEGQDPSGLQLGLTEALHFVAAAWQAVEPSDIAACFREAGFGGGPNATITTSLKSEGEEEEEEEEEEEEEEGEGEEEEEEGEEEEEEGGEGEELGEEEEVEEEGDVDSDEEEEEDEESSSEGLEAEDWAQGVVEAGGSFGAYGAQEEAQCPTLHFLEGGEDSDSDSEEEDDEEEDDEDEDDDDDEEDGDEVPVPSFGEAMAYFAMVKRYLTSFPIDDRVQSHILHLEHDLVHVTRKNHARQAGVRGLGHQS

In the test with centromere B, A32 (antibody) came in with a centromere B antibody value (relative units based on a standard curve) (relative units) of 1130. For Mab 2F5 (antibody), the Ro (SSA) antibody value (relative units based on a standard curve) (relative units) in the test with SS-A/Ro was 290. Besides, the histone antibody value (relative units based on a standard curve) (relative units) in the test with histones turned out to be 1010. This substance gave a centromere B antibody value (relative units based on a standard curve) (relative units) with centromere B of 1780. Turning to Mab 4E10 (antibody), the Ro (SSA) antibody value (relative units based on a standard curve) (relative units) with SS-A/Ro was found to be 221. As for Mab IgG1b12 (antibody), in the test with histones, the histone antibody value (relative units based on a standard curve) (relative units) turned out to be 185. Further, in the test with centromere B, the centromere B antibody value (relative units based on a standard curve) (relative units) was determined as 479.

For “soluble HIV-1 Env gp140 oligomers (CON-S)”, the IC50 in the test with Mab 4E10 was found to be 145 nM.
